Target: acetylcholine receptor (Homo sapiens, UniProt P02708)
Assay: SPR binding affinity (RU) of optimized 5mer/6mer/7mer peptides, Examples 6-7
Conditions: SPR, Resonance Units, peptides tested at 10 μM
Procedure, shortened: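 600 peptides per series (5mer, 6mer-1, 6mer-2), made from high- or low-frequency amino acid combinations, are screened by SPR at 10 μM; binding is recorded in RU.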

Sequence of acetylcholine receptor (P02708 21-457): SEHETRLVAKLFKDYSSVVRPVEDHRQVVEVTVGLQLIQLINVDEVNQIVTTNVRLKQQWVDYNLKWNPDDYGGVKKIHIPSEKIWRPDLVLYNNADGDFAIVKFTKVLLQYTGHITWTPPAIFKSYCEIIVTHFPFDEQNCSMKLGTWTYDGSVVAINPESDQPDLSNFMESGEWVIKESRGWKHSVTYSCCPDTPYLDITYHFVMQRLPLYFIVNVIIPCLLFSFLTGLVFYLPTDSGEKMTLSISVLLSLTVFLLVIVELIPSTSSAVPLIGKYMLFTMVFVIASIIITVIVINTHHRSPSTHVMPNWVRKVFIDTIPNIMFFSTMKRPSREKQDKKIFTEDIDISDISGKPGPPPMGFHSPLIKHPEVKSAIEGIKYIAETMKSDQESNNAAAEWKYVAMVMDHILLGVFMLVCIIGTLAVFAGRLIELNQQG

Substance	Binding affinity (6mer-2 Top sequence) [Ru]	Binding affinity (6mer-2 Bottom sequence) [Ru]
6mer-2-507 (RGICKR)	145	–
6mer-2-508 (RVFLKK)	121	–
6mer-2-509 (RGFYRK)	136	–
6mer-2-510 (KRVLKK)	146	–
6mer-2-511 (RVFCRR)	126	–
6mer-2-512 (RWFTRR)	148	–
6mer-2-513 (RRLTRK)	121	–
6mer-2-514 (KGLQKK)	124	–
6mer-2-515 (RWYCRK)	123	–
6mer-2-516 (RQQQKK)	146	–
6mer-2-517 (KLRTKK)	153	–
6mer-2-518 (KLVTKK)	151	–
6mer-2-519 (KQIQRR)	135	–
6mer-2-520 (KSYCKR)	144	–
6mer-2-521 (KQYTRK)	144	–
6mer-2-522 (RVVLRK)	124	–
6mer-2-523 (RGRYKR)	146	–
6mer-2-524 (RGIQKR)	128	–
6mer-2-525 (KWVRKK)	145	–
6mer-2-526 (RVLLRK)	144	–
6mer-2-527 (RGQTRR)	145	–
6mer-2-528 (KGFRKK)	151	–

Substance	Binding affinity (6mer-2 Top sequence) [Ru]	Binding affinity (6mer-2 Bottom sequence) [Ru]
6mer-2-529 (KQQRKR)	124	–
6mer-2-530 (RSYSKR)	139	–
6mer-2-531 (KVIYKR)	148	–
6mer-2-532 (KSITKR)	147	–
6mer-2-533 (KRLLKR)	142	–
6mer-2-534 (RVQLRR)	139	–
6mer-2-535 (KLFCRR)	133	–
6mer-2-536 (RWQRKK)	125	–
6mer-2-537 (KVLCKR)	153	–
6mer-2-538 (KQFCKK)	125	–
6mer-2-539 (KWYTKK)	127	–
6mer-2-540 (KRLTRR)	142	–
6mer-2-541 (KGQCRK)	126	–
6mer-2-542 (RQIYRR)	148	–
6mer-2-543 (RRQYRR)	144	–
6mer-2-544 (KVIQKR)	147	–
6mer-2-545 (KLYCRK)	125	–
6mer-2-546 (RVFTKK)	127	–
6mer-2-547 (RWQCKR)	135	–
6mer-2-548 (RLQCRR)	142	–
6mer-2-549 (KQLCKK)	142	–
6mer-2-550 (RSFTKK)	148	–

Substance	Binding affinity (6mer-2 Top sequence) [Ru]	Binding affinity (6mer-2 Bottom sequence) [Ru]
6mer-2-551 (KWYTKR)	141	–
6mer-2-552 (RGLLRR)	148	–
6mer-2-553 (RSLQKK)	124	–
6mer-2-554 (RWRCRR)	121	–
6mer-2-555 (RSVSKK)	154	–
6mer-2-556 (RSICKK)	148	–
6mer-2-557 (KWVLRK)	123	–
6mer-2-558 (KSVCKK)	154	–
6mer-2-559 (KGQLRR)	121	–
6mer-2-560 (RQYTRR)	153	–
6mer-2-561 (RRVLKK)	142	–
6mer-2-562 (RQQRKR)	136	–
6mer-2-563 (KGYQKR)	131	–
6mer-2-564 (KQVYRK)	148	–
6mer-2-565 (KSRRRR)	147	–
6mer-2-566 (KRLSKK)	139	–
6mer-2-567 (KLYYRK)	146	–
6mer-2-568 (KGFQKK)	142	–
6mer-2-569 (RWQLRK)	135	–
6mer-2-570 (RVYYKR)	148	–
6mer-2-571 (RGYQRR)	135	–
6mer-2-572 (KSQRRK)	148	–

Substance	Binding affinity (6mer-2 Top sequence) [Ru]	Binding affinity (6mer-2 Bottom sequence) [Ru]
6mer-2-573 (KLYLRR)	121	–
6mer-2-574 (KGVYRK)	153	–
6mer-2-575 (RGYSRK)	139	–
6mer-2-576 (KGVSRR)	139	–
6mer-2-577 (KRVQRR)	139	–
6mer-2-578 (RSVLRK)	135	–
6mer-2-579 (RWQYRK)	135	–
6mer-2-580 (KWQQRR)	121	–
6mer-2-581 (RVQQKR)	139	–
6mer-2-582 (RWQTRK)	148	–
6mer-2-583 (KSVTKK)	154	–
6mer-2-584 (KRLTRK)	148	–
6mer-2-585 (RSFRRK)	136	–
6mer-2-586 (RWLSRK)	121	–
6mer-2-587 (KRISKR)	148	–
6mer-2-588 (KWFYKK)	149	–
6mer-2-589 (RWQQRK)	153	–
6mer-2-590 (KGRLRK)	148	–
6mer-2-591 (KGILRR)	146	–
6mer-2-592 (RWVLRK)	122	–
6mer-2-593 (RSQLKR)	139	–
6mer-2-594 (RWYRRR)	139	–

Substance	Binding affinity (6mer-2 Top sequence) [Ru]	Binding affinity (6mer-2 Bottom sequence) [Ru]
6mer-2-595 (KLRCKK)	154	–
6mer-2-596 (KGIQKK)	153	–
6mer-2-597 (KQFLRK)	154	–
6mer-2-598 (KVFRRR)	146	–
6mer-2-599 (RRRYRK)	121	–
6mer-2-600 (RSQLKK)	139	–
6mer-2-601 (KNSHKK)	–	25
6mer-2-602 (RNTPKR)	–	24
6mer-2-603 (KFHARR)	–	32
6mer-2-604 (KEPIRK)	–	16
6mer-2-605 (KNCGKK)	–	17
6mer-2-606 (RKPFRR)	–	15
6mer-2-607 (KKWVKR)	–	31
6mer-2-608 (RCNHKK)	–	32
6mer-2-609 (RDSDRR)	–	24
6mer-2-610 (RKNPKR)	–	32
6mer-2-611 (RIKMRR)	–	22
6mer-2-612 (RDCVRK)	–	17
6mer-2-613 (KAANRR)	–	18
6mer-2-614 (KAWIRR)	–	19
6mer-2-615 (KDNGRK)	–	27
6mer-2-616 (REPHRK)	–	26

Substance	Binding affinity (6mer-2 Top sequence) [Ru]	Binding affinity (6mer-2 Bottom sequence) [Ru]
6mer-2-617 (RCNGRR)	–	32
6mer-2-618 (KHHKKR)	–	12
6mer-2-619 (RPPDRR)	–	26
6mer-2-620 (RHTGRR)	–	33
6mer-2-621 (RHEPKR)	–	32
6mer-2-622 (RYTNKR)	–	13
6mer-2-623 (KHAHRR)	–	13
6mer-2-624 (KPPIRK)	–	33
6mer-2-625 (RFPDKK)	–	33
6mer-2-626 (KNSEKK)	–	33
6mer-2-627 (KKTARR)	–	33
6mer-2-628 (RKSFKR)	–	30
6mer-2-629 (RFCWKK)	–	32
6mer-2-630 (RYAFRR)	–	27
6mer-2-631 (KYCMKR)	–	16
6mer-2-632 (KYDIKR)	–	12
6mer-2-633 (KYAVKR)	–	17
6mer-2-634 (RYEHRK)	–	33
6mer-2-635 (KECVRR)	–	11
6mer-2-636 (KMAPKR)	–	21
6mer-2-637 (RPPVRK)	–	32
6mer-2-638 (RCWAKR)	–	30

From patent US20250011363A1, “OPTIMIZED SHORTENED PEPTIDE THAT BINDS TO ACETYLCHOLINE RECEPTOR, AND USE THEREOF” (SKINMED CO., LTD., priority 2021, published 2025)
